The text below walks through data of US20090285813A1.

The test addresses human CD3 (human) (UniProt P07766). As to the kind of experiment: cell-based or functional assay.

Sequence of human CD3 (human) (P07766 23-207): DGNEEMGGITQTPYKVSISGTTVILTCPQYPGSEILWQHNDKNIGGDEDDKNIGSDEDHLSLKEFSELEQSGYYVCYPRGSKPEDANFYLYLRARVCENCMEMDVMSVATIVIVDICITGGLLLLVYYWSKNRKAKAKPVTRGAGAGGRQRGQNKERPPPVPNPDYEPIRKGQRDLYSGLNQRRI

“Irrelevant human IgG1 (EMD Biosciences Cat. 400120) (antibody)” had an Apo-One Apoptosis Assay, 12.5 ng/ml of 250; an Apo-One Apoptosis Assay, 25 ng/ml of 259; an Apo-One Apoptosis Assay, 50 ng/ml of 234.
